US20030232742A1, “FAP-activated anti-tumor compounds” (priority 2000, published 2003)
*1 amine or outer side, *2 acyl side, *3 side chain or, on linkers, in order; H or OH if unused. Where no end group is shown, it is not given here. [ ]: non-standard residue; d: D form. The star is where a group is joined. morpholino‑(ethyloxycarbonyl) = morpholino-(ethyloxycarbonyl) N-terminal blocking group, O=C(OCCN1CCOCC1)*; NH(4-MeO-2-naphthyl) = COc1cc(N*)cc2ccccc12; Glutaryl = O=C(CCCC(=O)[*:2])[*:1]; Suc = O=C(CCC(=O)[*:2])[*:1]; 4Amb = NCc1ccc(C(=O)O)cc1; NMeA = CN[C@@H](C)C(=O)O

What was measured:
FAP = biological target: T1, FAP (Homo sapiens, UniProt Q12884); assay: Assay for cleavage of MNA substrates by FAP; assay type: biochemical; details: 1 ng FAP enzyme in 293 cell extract, 20 μl 2.5 mM substrate (a few diluted further), room temperature 1 hour, control 293 extract subtracted
T1 construct: Cell extract from 293 cells stably transfected with FAP prepared as described; expressed in transfected cells; detergent extract used
T1 sequence (Q12884 1-760): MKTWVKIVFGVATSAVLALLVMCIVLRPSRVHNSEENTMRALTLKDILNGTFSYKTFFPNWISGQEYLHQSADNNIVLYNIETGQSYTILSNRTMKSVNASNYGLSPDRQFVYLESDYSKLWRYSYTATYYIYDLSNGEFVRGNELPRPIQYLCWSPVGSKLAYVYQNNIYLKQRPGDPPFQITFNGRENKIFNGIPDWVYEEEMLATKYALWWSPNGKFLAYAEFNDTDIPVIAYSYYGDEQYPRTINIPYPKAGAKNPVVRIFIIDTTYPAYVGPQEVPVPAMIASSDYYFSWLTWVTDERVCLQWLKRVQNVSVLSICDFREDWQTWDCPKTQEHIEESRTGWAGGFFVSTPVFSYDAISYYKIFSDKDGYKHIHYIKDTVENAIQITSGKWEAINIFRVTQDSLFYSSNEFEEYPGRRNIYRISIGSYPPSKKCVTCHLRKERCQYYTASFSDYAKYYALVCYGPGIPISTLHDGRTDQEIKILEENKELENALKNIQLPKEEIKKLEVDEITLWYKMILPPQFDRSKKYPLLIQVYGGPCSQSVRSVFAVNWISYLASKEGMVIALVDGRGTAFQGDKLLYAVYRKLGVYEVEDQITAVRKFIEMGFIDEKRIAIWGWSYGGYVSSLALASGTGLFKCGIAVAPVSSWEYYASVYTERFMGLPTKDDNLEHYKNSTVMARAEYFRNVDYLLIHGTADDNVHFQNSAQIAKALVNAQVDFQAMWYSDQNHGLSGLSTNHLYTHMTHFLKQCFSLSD
Excerpt: To identify preferred FAPα peptide substrates, blocked oligopeptides composed of natural amino carboxylic acids were synthesized and coupled to Proline-4-methoxy-β-napthylamine (Pro-MNA) using methods known to the art (E. Wünsch, Synthese von Peptiden, in Methoden der organischen Chemie, Houben-Weyl (Eds. E. Müller, 0. Bayer), Vol. XV, Part 1 and 2, Georg Thieme Verlag, Stuttgart, 1974). The turnover and cleavage rate have been determined with the aid pf the following assay:
Assay for Cleavage of MNA Substrates by FAP:
Cell extract from 293 cells stably transfected with FAP prepared as described (see Park, et al., Fibroblast Activation Protein, a Dual Specificity Serine Protease expressed in human tumor stromal fibroblasts. (1999) J. Biol. Chem. 36505-12.). A similar extract was also prepared from parental 293 control cells without FAP. The FAP concentration in the FAP-transfected cell extract was estimated by immunoassay and 1 ng enzyme (diluted in buffer A) was used per assay. FAP-negative 293 control cell extract was used at the same dilution (also in buffer A) as a negative control. Substrate was initially dissolved in dimethylformamide at a concentration of 200 mM and diluted in buffer A to a final concentration of 2.5 mM. A few substrates were not soluble at this concentration and had to be diluted further.
10 μl 10% DMSO in buffer A
70 μl diluted FAP cell extract containing 1 ng FAP enzyme (OR control 293 cell extract without FAP)
Mix, incubate at room temperature for 1 hour, and measure fluorescence in Fluorostar fluorimeter at the following wavelengths:
MNA conjugates: Excitation: 355 nm, Emission: 405 nm.
The fluorescence measured in the samples treated with control 293 control cell extracts without FAP is subtracted from the values measured in the samples treated with 1 ng FAP enzyme.

FAPα dimers = biological target: T2, FAPα dimers (Homo sapiens, UniProt Q12884); details: membrane overlay assay, WO 97/34927; cited from earlier work
T2 sequence (Q12884 1-760): T1 sequence (Q12884 1-760)

Substance	% Turnover (FAP) [%]	Cleavage (FAP) [µM]	cleavage of dipeptide coumarin substrate (FAPα dimers)
Pyrid-3-ylmethyloxycarbonyl-MeAla-Ala-Gly-Pro-MNA ({pyrid‑3‑ylmethyloxycarbonyl}-[NMeA]AGP-{NH(4-MeO-2-naphthyl)}) [MeAla represents a N-methylalanin moiety]	1.27	6.31	
Pyrid-4-ylmethyloxycarbonyl-2-Aze-Ala-Gly-Pro-MNA	1.61	8.07	
3-Pyridylacetyl-Gly-Pro-MNA	1.82	9.12	
4-Pyridylmethyloxycarbonyl-Pro-Ala-Gly-Pro-MNA ({4‑pyridylmethyloxycarbonyl}-PAGP-{NH(4-MeO-2-naphthyl)})	1.28	6.38	
2-Morpholino-ethyl-Pro-Ala-Gly-Pro-MNA ({2‑morpholino‑ethyl}-PAGP-{NH(4-MeO-2-naphthyl)})	0.26	0.64	
3 -Pyridylmethyloxycarbonyl-Gly-Pro-MNA	0.72	3.58	
Glutaryl-Pro-Ala-Gly-Pro-MNA (Glutaryl-PAGP-{NH(4-MeO-2-naphthyl)}; SMILES COc1cc(NC(=O)[C@@H]2CCCN2C(=O)CNC(=O)[C@H](C)NC(=O)[C@@H]2CCCN2C(=O)CCCC(=O)O)cc2ccccc12)	0.3	1.48	
Lys-Pro-7-amino-4-trifluoromethyl coumarin			able to cleave
4-Hydroxyphenylacetyl-Pro-Ala-Gly-Pro-MNA ({4‑hydroxyphenylacetyl}-PAGP-{NH(4-MeO-2-naphthyl)})	0.69	1.72	
Prazin-2-ylcarbonyl-Pro-Ala-Gly-Pro-MNA ({pyrazin‑2‑ylcarbonyl}-PAGP-{NH(4-MeO-2-naphthyl)})	0.56	0.7	
Malonyl-Pro-Ala-Gly-Pro-MNA (malonyl-PAGP-{NH(4-MeO-2-naphthyl)})	0.21	1.05	
Morpholino-(ethyloxycarbonyl)-Pro-Ala-Gly-Pro-MNA ({morpholino‑(ethyloxycarbonyl)}-PAGP-{NH(4-MeO-2-naphthyl)}; SMILES COc1cc(NC(=O)[C@@H]2CCCN2C(=O)CNC(=O)[C@H](C)NC(=O)[C@@H]2CCCN2C(=O)OCCN2CCOCC2)cc2ccccc12)	0.65	3.25	
4-Aminomethylphenylacetyl-Pro-Ala-Gly-Pro-MNA ({4‑aminomethylphenylacetyl}-PAGP-{NH(4-MeO-2-naphthyl)})	0.26	1.28	
3-Carboxyphenylsulfonyl-Pro-Ala-Gly-Pro-MNA ({3‑carboxyphenylsulfonyl}-PAGP-{NH(4-MeO-2-naphthyl)})	0.58	2.88	
4-(2-Aminothiazol-5-yl)-acetyl-Pro-Ala-Gly-Pro-MNA ({(2-aminothiazol-5-yl)‑acetyl}-PAGP-{NH(4-MeO-2-naphthyl)})	0.39	1.94	
4-Fluorphenylacetyl-Gly-Pro-MNA	0.42	2.08	

Substance	% Turnover (FAP) [%]	Cleavage (FAP) [µM]	cleavage of dipeptide coumarin substrate (FAPα dimers)
Pyrid-3-ylmethyloxycarbonyl-2-Aze-Ala-Gly-Pro-MNA	3.42	17.1	
Pyridin-3-ylmethoxycarbonyl-Pro-Ala-Gly-Pro-MNA ({pyridin‑3‑ylmethoxycarbonyl}-PAGP-{NH(4-MeO-2-naphthyl)})	1.77	8.86	
2-Fluorphenylacetyl-Gly-Pro-MNA	0.26	1.28	
4-Amino-Phenylacetyl-Gly-Pro-MNA	0.6	3	
4-Pyridylmethyloxycarbonyl-Gly-Pro-MNA	1.18	5.92	
1-Methylpyrrol-2-ylcarbonyl Pro-Ala-Gly-Pro-MNA ({1‑methylpyrrol‑2‑ylcarbonyl}-PAGP-{NH(4-MeO-2-naphthyl)})	0.13	0.33	
4-Aminomethylbenzoyl-Pro-Ala-Gly-Pro-MNA ([4Amb]PAGP-{NH(4-MeO-2-naphthyl)})	0.24	1.21	
Pyrid-4-ylmethyloxycarbonyl-Pip-Ala-Gly-Pro-MNA	0.43	2.16	
Gly-Pro-7-amino-4-trifluoromethyl coumarin			able to cleave
Pyrid-3-ylmethyloxycarbonyl-Pip-Ala-Gly-Pro-MNA	0.56	2.78	
4-Dimethylaminobenzoyl-Pro-Ala-Gly-Pro-MNA ({4‑dimethylaminobenzoyl}-PAGP-{NH(4-MeO-2-naphthyl)})	0.37	1.85	
3-Fluorphenylacetyl-Gly-Pro-MNA	0.35	1.77	
3,5-Difluorphenylacetyl-Gly-Pro-MNA	2.26	2.26	
Morpholino-carbonyl-Pro-Ala-Gly-Pro-MNA ({morpholino‑carbonyl}-PAGP-{NH(4-MeO-2-naphthyl)})	0.6	2.99	
Succinyl-Pro-Ala-Gly-Pro-MNA (Suc-PAGP-{NH(4-MeO-2-naphthyl)}; SMILES COc1cc(NC(=O)[C@@H]2CCCN2C(=O)CNC(=O)[C@H](C)NC(=O)[C@@H]2CCCN2C(=O)CCC(=O)O)cc2ccccc12)	0.29	1.44	
Ala-Pro-7-amino-4-trifluoromethyl coumarin			able to cleave
